Laboratory results taken from PMC10716038, “Talin and kindlin use integrin tail allostery and direct binding to activate integrins” (Nature Structural & Molecular Biology, 2023).
Values joined by “and” are separate entries in the source; they are usually repeats but may differ in a detail not shown here. Equal values may be shown once. Values belong to the binder of their own block, whether it stands above or below them. No end group written: not given here.

Columns and labels:
[1] = target: T1, F3 domain of TLN2 (TLN2-F3) (UniProt Q71LX4 311-408); assay: MST
T1 chain: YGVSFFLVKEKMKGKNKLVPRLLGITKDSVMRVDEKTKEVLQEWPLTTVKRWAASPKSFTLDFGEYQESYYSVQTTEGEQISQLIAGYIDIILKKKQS

[2] = target: T2, KIND2 lacking the flexible loop in F1 and the PH domain (ΔKIND2); assay: MST
T2 chain: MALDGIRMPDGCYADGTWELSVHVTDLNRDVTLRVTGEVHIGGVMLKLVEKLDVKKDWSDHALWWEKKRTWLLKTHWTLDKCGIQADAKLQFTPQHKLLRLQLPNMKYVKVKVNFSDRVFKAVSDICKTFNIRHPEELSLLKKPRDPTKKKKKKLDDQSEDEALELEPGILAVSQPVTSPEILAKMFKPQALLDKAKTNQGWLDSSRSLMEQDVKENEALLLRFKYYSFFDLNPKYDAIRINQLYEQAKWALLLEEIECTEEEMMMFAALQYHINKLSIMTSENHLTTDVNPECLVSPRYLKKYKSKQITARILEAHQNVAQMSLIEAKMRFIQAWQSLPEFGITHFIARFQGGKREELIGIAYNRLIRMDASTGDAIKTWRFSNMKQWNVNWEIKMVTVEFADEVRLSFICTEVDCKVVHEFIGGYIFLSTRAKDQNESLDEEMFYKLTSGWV

[3] = target: T3, F3 domain of TLN1 (TLN1-F3) (UniProt P26039 305-405); assay: MST
T3 chain: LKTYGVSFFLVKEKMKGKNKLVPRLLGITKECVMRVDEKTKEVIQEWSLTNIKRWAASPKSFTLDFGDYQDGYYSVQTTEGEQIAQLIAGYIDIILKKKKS

[4] = target: T4, talin-1 head domain (THD1) (UniProt P26039 1-405); assay: MST; ATTO 488-labelled β-CT peptide (50–200 nM) held constant, one unlabelled protein titrated; 20 mM Tris pH 7.5, 200 mM NaCl, 1 mM TCEP, 0.05% Tween-20; apparent affinities (near-saturation only); settings: both partners purified
T4 construct: talin-1 (TLN1) head domain (F0-F3), residues 1-405; In FC-RDA a copy labelled with ATTO 565 (565–THD1) was the reporter; also called 565–THD1; source: E. coli (DE3) Rosetta 2, purified (IMAC, SEC); not shown: His10, N-terminal, cleaved; SUMO, N-terminal, cleaved

[5] = target: T5, talin-2 head domain (THD2) (UniProt Q71LX4 1-408); assay: as above; settings: both partners purified
T5 construct: talin-2 (TLN2) head domain, residues 1-408; source: E. coli (DE3) Rosetta 2, purified (IMAC, SEC); not shown: His10, N-terminal, cleaved; SUMO, N-terminal, cleaved

[6] = target: T6, THD1^K402E (UniProt P26039 1-405, K402E); assay: as above; settings: both partners purified
T6 construct: talin-1 (TLN1) head domain, residues 1-405, with K402E; In FC-RDA a copy labelled with ATTO 565 was the reporter; also called 565–THD1^K402E; source: E. coli (DE3) Rosetta 2, purified (IMAC, SEC); not shown: His10, N-terminal, cleaved; SUMO, N-terminal, cleaved

[7] = target: T7, kindlin-2 (KIND2) (UniProt Q8CIB5 1-680); assay: as above; settings: both partners purified
T7 construct: kindlin-2 (KIND2) without the deletions of ΔKIND2; In FC-RDA a copy labelled with Alexa 647 (647–KIND2) was the reporter; also called 647–KIND2; source: E. coli Rosetta, purified (IMAC, SEC); not shown: His10, N-terminal, cleaved; SUMO, N-terminal, cleaved
T7 sequence (looked up): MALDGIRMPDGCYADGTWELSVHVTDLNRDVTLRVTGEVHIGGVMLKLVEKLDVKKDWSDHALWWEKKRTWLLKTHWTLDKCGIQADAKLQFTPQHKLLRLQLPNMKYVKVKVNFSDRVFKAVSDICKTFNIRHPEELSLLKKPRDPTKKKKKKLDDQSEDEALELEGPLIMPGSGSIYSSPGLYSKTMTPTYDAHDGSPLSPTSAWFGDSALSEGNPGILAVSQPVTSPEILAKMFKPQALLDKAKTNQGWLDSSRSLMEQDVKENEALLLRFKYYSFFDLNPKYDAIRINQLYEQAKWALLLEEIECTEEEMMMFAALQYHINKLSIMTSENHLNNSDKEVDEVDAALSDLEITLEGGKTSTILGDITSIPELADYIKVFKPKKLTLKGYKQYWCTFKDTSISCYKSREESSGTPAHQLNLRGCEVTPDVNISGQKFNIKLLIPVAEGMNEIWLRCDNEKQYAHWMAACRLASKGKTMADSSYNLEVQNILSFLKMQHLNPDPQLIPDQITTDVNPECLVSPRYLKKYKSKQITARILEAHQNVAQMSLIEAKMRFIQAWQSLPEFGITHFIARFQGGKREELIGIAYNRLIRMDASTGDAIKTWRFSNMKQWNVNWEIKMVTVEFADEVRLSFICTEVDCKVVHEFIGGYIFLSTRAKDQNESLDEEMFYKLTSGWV

[8] = target: T8, KIND2^Y13A (UniProt Q8CIB5 1-680, Y13A); assay: as above; settings: both partners purified
T8 construct: kindlin-2 (KIND2) with Y13A; In FC-RDA a copy labelled with Alexa 647 was the reporter; also called 647–KIND2^Y13A; source: E. coli Rosetta, purified (IMAC, SEC); not shown: His10, N-terminal, cleaved; SUMO, N-terminal, cleaved
T8 sequence (looked up): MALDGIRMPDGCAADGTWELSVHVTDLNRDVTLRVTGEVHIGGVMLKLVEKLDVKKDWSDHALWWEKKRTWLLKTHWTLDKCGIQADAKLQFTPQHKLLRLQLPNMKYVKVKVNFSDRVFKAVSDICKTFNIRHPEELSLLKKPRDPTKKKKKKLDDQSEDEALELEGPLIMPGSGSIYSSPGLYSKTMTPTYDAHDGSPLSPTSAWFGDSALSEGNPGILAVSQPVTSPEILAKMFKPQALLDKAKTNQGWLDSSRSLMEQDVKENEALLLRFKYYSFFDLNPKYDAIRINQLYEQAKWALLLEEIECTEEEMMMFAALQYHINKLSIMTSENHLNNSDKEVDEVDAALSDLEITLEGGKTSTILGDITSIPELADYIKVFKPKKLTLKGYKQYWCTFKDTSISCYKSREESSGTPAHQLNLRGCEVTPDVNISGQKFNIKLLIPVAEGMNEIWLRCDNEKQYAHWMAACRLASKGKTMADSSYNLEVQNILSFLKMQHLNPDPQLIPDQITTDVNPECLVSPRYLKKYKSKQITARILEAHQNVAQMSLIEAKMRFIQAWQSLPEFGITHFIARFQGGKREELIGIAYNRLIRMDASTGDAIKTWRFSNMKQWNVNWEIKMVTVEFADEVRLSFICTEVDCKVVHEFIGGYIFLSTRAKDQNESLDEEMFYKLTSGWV

[9] = target: T4, talin-1 head domain (THD1); assay: flow cytometry-based reporter-displacement assay (FC-RDA) on beads; biotinylated TM–CT in nanodiscs (10% PIP2 or PIP3, 90% DMPC) on streptavidin Dynabeads; reporters 100 nM 565–THD1 or 50 nM 647–KIND2; unlabelled THD1 or KIND2 titrated; 20 mM Tris pH 7.5, 200 mM NaCl, 10 min at room temperature; the lipids add to the binding; settings: both partners purified
[10] = target: T6, THD1^K402E; assay: as above; settings: both partners purified
[11] = target: T7, kindlin-2 (KIND2); assay: as above; settings: both partners purified
[12] = target: T8, KIND2^Y13A; assay: as above; settings: both partners purified
[13] = target: T9, TLN1-F3^K402E (UniProt P26039 305-405, K402E); assay: NMR titration; isotope-labelled β1-CT observed; TLN1-F3 and ΔKIND2 (wild type or K402E / Y13A) added together, ternary complex; 20 mM Tris, 200 mM NaCl, 1 mM DTT, pH 7.5, 298 K; settings: both partners purified
T9 construct: source: E. coli (DE3) Rosetta 2, purified (IMAC, SEC); not shown: His10, N-terminal, cleaved; SUMO, N-terminal, cleaved

[14] = target: T10, F3 domain of TLN1 (TLN1-F3) (UniProt P26039 305-405); assay: NMR titration; isotope-labelled β1-CT observed (1H-15N HSQC, 1H-13C methyl correlations); unlabelled TLN1-F3 or ΔKIND2 added alone at increasing stoichiometries; 20 mM Tris, 200 mM NaCl, 1 mM DTT, pH 7.5, 298 K; settings: both partners purified
T10 construct: Used unlabelled, 15N-labelled or partially deuterated in NMR; also called T1-F3; source: E. coli (DE3) Rosetta 2, purified (IMAC, SEC); not shown: His10, N-terminal, cleaved; SUMO, N-terminal, cleaved

T6 sequence (P26039 1-405 K402E): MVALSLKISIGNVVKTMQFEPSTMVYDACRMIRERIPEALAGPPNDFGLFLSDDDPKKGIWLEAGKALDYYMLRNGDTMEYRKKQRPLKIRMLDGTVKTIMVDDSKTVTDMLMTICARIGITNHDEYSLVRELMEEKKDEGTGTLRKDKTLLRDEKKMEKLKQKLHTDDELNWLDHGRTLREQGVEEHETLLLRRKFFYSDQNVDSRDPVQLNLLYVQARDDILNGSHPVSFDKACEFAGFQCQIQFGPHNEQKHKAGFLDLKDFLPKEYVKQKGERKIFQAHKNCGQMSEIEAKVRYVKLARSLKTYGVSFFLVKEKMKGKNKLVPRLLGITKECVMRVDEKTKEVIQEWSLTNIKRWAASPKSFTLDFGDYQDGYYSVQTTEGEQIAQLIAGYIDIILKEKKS

Kd [1]: 98 µM
Kd [2]: 6.8 µM
Kd [3]: 106 µM
Kd [4]: 108 µM and 105 µM
Kd [5]: 39 µM
Kd [6]: 34 µM
Kd [7]: 9 µM
Kd [8]: 9 µM
B1: ATTO 488-labelled β3-CT (488–β3-CT) (peptide, UniProt O54890 741-787, looked up)
peptide: {ATTO 488}-KLLITIHDRKEFAKFEEERARAKWDTANNPLYKEATSTFTNITYRGT
notes: integrin β3 cytoplasmic tail; source: synthetic peptide (MPIB Core Facility)

binding result [9]: binds
binding result [10]: binds
binding result [11]: binds
binding result [12]: binds
B2: β3 transmembrane and cytoplasmic tail polypeptide (β3-TM–CT) in nanodiscs (domain or fragment, UniProt O54890 715-787, looked up)
chain: GPDILVVLLSVMGAILLIGLATLLIWKLLITIHDRKEFAKFEEERARAKWDTANNPLYKEATSTFTNITYRGT
modifications: biotin (biotin-maleimide)
notes: integrin β3 transmembrane helix and cytoplasmic tail, residues 715-787; Embedded in nanodiscs of 10% PIP2 or PIP3 and 90% DMPC; held on streptavidin beads by the biotin; source: E. coli BL21 (DE3) Rosetta 2, inclusion bodies, purified (IMAC, cation exchange), put into MSP2N2 nanodiscs

binding result [13]: binds
binding result [14]: binds
B3: integrin β1A cytoplasmic tail (β1-CT), recombinant (peptide, UniProt P05556-1 758-798, looked up)
chain: HDRREFAKFEKEKMNAKWDTGENPIYKSAVTTVVNPKYEGK
notes: integrin β1, splice isoform A, cytoplasmic tail, residues 758-798; DNA synthesised; 15N-, 13C,15N- or 2H,13C,15N-labelled when observed by NMR; also called β1A-CT; integrin-β1-CT; source: E. coli (DE3) Rosetta 2 in M9 medium, purified (IMAC, cation exchange); not shown: His10, N-terminal, cleaved; SUMO, N-terminal, cleaved
